According to publication PMC7611158 (Molecular cancer therapeutics, 2019):
Blank lines part the entries; values can stand above or below the binder they belong to.

Key:
hJAG1 DSL-EGF1-3 protein = hJAG1 DSL-EGF1-3 protein (Homo sapiens, UniProt P78504); assay: SPR
[1] = target: human JAGGED2 (hJAG2), on transfected HEK293 cells (Homo sapiens, UniProt Q9Y219); assay: flow cytometry on cells
[2] = target: human DLL4 (hDLL4), on transfected B16F10 cells (Homo sapiens, UniProt Q9NR61); assay: flow cytometry on cells
Chain of human DLL4 (hDLL4), on transfected B16F10 cells (Q9NR61 27-685, one chain of several): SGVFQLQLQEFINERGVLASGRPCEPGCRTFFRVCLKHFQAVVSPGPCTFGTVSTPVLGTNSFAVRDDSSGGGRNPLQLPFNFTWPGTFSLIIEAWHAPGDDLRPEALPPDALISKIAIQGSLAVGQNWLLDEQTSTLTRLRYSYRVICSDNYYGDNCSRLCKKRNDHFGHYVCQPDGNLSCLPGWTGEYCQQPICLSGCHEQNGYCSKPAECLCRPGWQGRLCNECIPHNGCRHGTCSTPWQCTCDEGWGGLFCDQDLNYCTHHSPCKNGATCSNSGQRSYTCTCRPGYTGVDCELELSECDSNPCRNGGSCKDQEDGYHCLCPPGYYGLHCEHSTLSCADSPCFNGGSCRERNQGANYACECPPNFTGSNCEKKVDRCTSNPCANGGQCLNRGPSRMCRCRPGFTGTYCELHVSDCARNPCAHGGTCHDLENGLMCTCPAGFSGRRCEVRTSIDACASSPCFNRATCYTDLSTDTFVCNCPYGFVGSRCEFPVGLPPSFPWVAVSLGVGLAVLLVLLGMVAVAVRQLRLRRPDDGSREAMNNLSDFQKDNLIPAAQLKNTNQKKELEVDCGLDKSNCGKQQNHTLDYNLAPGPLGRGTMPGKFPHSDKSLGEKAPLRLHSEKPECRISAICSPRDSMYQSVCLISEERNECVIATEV

[3] = target: murine Jagged1 (mJag1), on transfected B16F10 cells (mouse, UniProt Q9QXX0); assay: flow cytometry on cells
Chain of murine Jagged1 (mJag1), on transfected B16F10 cells (Q9QXX0 34-1218, one chain of several): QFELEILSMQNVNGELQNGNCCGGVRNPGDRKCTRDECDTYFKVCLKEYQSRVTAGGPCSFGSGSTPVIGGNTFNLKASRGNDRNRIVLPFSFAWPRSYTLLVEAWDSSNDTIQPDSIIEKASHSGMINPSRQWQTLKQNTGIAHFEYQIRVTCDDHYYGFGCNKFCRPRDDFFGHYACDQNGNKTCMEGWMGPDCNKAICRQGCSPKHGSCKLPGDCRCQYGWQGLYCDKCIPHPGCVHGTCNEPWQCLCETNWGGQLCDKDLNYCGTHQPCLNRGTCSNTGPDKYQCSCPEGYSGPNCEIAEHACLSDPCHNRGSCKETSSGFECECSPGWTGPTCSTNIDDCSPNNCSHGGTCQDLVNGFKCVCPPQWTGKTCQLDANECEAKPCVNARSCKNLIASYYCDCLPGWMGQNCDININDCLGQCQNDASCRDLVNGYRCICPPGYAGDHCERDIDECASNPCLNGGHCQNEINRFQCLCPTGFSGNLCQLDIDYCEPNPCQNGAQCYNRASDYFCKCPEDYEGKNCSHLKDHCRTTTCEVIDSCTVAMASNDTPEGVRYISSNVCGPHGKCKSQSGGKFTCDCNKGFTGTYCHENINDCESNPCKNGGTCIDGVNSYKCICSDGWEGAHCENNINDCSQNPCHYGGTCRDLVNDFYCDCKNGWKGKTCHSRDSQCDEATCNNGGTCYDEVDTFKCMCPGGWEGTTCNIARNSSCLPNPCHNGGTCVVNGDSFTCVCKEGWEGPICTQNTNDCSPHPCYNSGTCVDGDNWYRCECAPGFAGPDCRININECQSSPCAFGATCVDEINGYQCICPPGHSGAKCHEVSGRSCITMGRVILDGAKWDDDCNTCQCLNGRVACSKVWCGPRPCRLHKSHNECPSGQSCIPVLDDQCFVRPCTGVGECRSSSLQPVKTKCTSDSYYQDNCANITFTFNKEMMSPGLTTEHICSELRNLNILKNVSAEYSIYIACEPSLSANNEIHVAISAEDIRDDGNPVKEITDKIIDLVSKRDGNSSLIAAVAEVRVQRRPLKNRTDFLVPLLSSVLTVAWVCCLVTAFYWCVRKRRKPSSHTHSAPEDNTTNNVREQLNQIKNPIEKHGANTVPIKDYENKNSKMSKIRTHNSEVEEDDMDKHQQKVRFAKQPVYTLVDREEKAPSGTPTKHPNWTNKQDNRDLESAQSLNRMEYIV

[4] = target: JAG1 (target of the affinity printed for hJ1-65Dv9) (UniProt P78504)
Chain of JAG1 (target of the affinity printed for hJ1-65Dv9) (P78504 34-1218): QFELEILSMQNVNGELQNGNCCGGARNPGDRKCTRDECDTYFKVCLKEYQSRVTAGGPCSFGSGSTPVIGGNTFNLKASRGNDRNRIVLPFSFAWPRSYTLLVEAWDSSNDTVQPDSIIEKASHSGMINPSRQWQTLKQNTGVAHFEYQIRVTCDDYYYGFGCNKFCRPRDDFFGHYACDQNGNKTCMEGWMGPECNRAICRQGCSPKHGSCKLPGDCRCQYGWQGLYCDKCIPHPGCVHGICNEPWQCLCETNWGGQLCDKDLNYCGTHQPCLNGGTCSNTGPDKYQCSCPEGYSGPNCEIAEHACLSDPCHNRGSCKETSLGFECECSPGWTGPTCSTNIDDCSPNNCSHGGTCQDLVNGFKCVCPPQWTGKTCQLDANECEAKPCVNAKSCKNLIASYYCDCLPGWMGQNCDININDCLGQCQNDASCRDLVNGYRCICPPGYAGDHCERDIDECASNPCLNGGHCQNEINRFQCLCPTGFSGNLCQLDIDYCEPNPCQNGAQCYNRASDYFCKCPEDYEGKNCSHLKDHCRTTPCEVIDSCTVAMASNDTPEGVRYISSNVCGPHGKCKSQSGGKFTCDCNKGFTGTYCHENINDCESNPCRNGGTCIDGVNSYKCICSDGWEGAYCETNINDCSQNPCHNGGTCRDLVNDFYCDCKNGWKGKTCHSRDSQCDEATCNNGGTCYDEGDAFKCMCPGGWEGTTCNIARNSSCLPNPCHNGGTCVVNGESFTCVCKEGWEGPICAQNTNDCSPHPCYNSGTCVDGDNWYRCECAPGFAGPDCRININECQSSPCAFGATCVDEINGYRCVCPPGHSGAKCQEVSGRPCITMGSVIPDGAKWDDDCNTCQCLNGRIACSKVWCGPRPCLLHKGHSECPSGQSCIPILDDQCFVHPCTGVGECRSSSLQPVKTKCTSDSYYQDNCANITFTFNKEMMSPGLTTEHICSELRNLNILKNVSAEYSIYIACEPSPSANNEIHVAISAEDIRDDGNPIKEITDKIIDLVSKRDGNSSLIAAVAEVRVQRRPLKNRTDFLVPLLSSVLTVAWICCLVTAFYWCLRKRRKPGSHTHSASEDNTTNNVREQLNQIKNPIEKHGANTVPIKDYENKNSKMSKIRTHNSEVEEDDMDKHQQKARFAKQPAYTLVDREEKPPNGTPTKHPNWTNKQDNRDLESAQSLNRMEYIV

Chain of human JAGGED2 (hJAG2), on transfected HEK293 cells (Q9Y219 24-1238): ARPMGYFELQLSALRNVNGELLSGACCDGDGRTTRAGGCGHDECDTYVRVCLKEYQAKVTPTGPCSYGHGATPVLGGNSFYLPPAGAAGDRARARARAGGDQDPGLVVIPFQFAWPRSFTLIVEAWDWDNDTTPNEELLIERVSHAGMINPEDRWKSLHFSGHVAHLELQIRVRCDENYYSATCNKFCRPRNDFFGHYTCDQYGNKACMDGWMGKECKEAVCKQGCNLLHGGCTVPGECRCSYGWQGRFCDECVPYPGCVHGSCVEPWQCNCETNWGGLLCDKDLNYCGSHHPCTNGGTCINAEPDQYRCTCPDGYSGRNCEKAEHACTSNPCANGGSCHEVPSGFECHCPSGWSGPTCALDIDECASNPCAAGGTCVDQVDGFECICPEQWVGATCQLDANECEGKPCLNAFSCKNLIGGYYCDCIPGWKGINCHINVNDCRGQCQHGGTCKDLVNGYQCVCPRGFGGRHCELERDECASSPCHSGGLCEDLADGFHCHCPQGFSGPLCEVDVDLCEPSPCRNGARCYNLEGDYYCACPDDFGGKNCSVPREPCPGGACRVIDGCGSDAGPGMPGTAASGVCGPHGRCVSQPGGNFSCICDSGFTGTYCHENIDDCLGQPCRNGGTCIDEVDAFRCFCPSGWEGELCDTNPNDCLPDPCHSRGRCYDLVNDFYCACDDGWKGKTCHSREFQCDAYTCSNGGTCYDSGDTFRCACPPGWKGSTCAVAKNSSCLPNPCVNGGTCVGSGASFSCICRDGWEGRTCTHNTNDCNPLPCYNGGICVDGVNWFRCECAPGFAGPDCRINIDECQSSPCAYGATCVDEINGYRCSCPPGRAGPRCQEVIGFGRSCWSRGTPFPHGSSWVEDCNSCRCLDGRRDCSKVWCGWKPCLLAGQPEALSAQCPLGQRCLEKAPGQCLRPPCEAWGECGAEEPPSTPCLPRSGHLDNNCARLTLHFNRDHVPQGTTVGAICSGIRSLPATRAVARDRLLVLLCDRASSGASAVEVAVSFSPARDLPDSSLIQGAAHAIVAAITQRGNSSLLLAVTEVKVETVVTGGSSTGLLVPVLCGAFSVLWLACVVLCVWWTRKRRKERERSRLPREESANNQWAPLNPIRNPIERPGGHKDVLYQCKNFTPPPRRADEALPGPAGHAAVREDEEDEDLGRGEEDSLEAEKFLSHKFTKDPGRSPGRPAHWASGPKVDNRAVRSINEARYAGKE
Chain of hJAG1 DSL-EGF1-3 protein (P78504 185-335): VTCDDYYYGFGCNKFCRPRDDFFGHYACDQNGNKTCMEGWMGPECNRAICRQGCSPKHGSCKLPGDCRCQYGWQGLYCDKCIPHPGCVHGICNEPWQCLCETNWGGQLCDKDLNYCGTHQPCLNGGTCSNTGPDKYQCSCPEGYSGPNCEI

Kd (hJAG1 DSL-EGF1-3 protein): 9.7 nM
binding result [1]: no binding
binding result [2]: no binding
binding result [3]: no binding
B1: J1-65D (antibody, V domains shown)
VH: QVQLQQPGAELVRPGASVKLSCKALGYTFTDYEMHWVKETPVHGLEWIGAIQPGGGGTAYNQKFKGKATLTADKSSSTAYMELSSLTSEDSAVYYCTRRGYDDYPFAYWGQGTLVTVSS
VL: DIQLTQSPASLSASVGETVTITCRASGNIHNYLAWYQQKQGKSPQLLVYNAKTLADDIPSRFSGSGSGTQYSLKINSLQPEDFGSYYCQHFWSAPWTFGGGTKLEIK

Kd [4]: 0.0139 nM
B2: hJ1-65Dv9 (antibody, V domains shown)
VH: QVQLVQSGAELKKPGSSVKVSCKASGYTFTDYEMHWVRQAPGQGLEWMGAIQPGGGGTAYNQKFKGRVTLTADKSTSTAYMELSSLRSEDTAVYYCTRRGYDDYPFAYWGQGTLVTVSS
VL: DIQMTQSPSSLSASVGDRVTITCRASGNIHNYLAWYQQKPGKAPKLLIYNAKTLADAVPSRFSGSGSGTDYTLTISSLQPEDFATYYCQHFWSAPWTFGQGTKLEIK

Kd (hJAG1 DSL-EGF1-3 protein): 4.9 nM
binding result [1]: no binding
binding result [2]: no binding
binding result [3]: no binding
B3: J1-183D (antibody, V domains shown)
VH: QVQLQQPGTELVRPGVSVKISCKVSGYAFTDYAIHWIMQSHAKSLEWIGIINTYYGDSKYNQKFKDKATMTVDKSSNTAYMELARLTSEDSAIYYCARGYDGFAYWGQGTLVTVSS
VL: DIQLTQSPASLSASVGETVTFTCRTSENIYSYLTWYQQKQGKSPQLLVYNAKILAAGVPSRFSGYGSGTQFSLKINSLQPEDFGTYYCQHHYDIPWTFGGGTKLEIK
